Key:
MheI = MheI (Nocardioides sp., UniProt C8CP46); experiment: Enzyme assays and determination of kinetic constants of purified MheI (HPLC); settings: 1-40 μM carbendazim, 200 mM sodium phosphate buffer, 22° C.
Experimental: (§1) Enzyme assays were performed in 96 well microtiter plates (Agilent catalogue number) at 22° C. The assay mixture typically contained 20 μg bovine serum albumin, 0.022 μg purified MheI and 1-40 μM carbendazim in a final volume of 200 μl of 200 mM sodium phosphate buffer. Enzymatic reaction was stopped by adding 5 μl of formic acid after 10 minutes and the initial velocities were measured using HPLC. All these assays were performed in triplicate.
COC(=O)Nc1nc2ccccc2[nH]1 = experiment: purified protein, by the assay type; settings: other: purified MheI, 1-40 μM carbendazim, 200 mM sodium phosphate buffer, 22° C.
Experimental: as §1

Sequence of MheI (C8CP46 whole entry): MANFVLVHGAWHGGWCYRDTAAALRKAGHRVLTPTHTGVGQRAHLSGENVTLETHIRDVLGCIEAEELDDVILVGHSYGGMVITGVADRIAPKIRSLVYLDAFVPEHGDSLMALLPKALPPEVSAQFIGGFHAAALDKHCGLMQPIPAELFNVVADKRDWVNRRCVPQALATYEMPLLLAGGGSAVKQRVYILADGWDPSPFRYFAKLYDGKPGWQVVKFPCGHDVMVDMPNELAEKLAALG

Compound: COC(=O)Nc1nc2ccccc2[nH]1 [carbendazim]
- Km (MheI): 6.1 µM

Compound: MheI (Nocardioides sp. SG-4G)
- Km (COC(=O)Nc1nc2ccccc2[nH]1): 6.1 µM
- kcat (COC(=O)Nc1nc2ccccc2[nH]1): 120 per second
